{
  "source": "paper PMC11203950",
  "about": "“Folding and Binding Kinetics of the Tandem of SH2 Domains from SHP2” (International Journal of Molecular Sciences, 2024)",
  "key": {"NSH2-CSH2 tandem of SHP2 [1]": {"biological_target": "T1, NSH2-CSH2 tandem of SHP2 (Homo sapiens, UniProt Q06124)", "T1 construct": "The constructs encoding the isolated NSH2 domain, the isolated CSH2 domain, and the NSH2-CSH2 tandem were subcloned in a pET28b+ plasmid vector; made in house; host or cells: Escherichia coli BL21 (DE3)", "T1 sequence (Q06124 1-220 limits assumed)": "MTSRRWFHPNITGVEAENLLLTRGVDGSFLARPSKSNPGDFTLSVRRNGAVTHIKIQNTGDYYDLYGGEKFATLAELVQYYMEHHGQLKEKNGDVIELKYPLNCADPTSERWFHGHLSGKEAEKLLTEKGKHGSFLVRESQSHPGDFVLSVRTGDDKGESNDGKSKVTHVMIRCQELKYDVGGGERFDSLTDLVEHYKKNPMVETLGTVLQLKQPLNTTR", "test": "Kinetic displacement of peptide from NSH2-CSH2 tandem by Gab2T", "assay_type": "binding", "details": "for rate constant in displacement by Gab2T: pH 7.2, 10 °C", "description": "(§1) In analogy to our previous works, we performed kinetic binding experiments by challenging the NSH2-CSH2 tandem with peptides mimicking different portions of Gab2, namely Gab2_608–620 (binding the NSH2 domain) and Gab2_637–649 (binding the CSH2 domain). From now on, the two peptides will be named, respectively, Gab2N and Gab2C, while the peptide mimicking the entire segment of Gab2 binding both SH2 domains, and corresponding to Gab2_608–649, will be named Gab2T. To compare data with our previous works, the experiments were performed in buffer Hepes 50 mM, NaCl 300 mM, 2 mM DTT, pH 7.2, at 10 °C, by following the FRET signal occurring through the excitation of the tryptophan residues in the NSH2-CSH2 tandem with light at 280 nm and following the change in fluorescence of the dansyl group covalently attached to the N-terminus of the peptides.\nWe also resorted to monitoring the binding reaction between the NSH2-CSH2 tandem with the Gab2T peptide. […] To obtain information about the ability of the NSH2-CSH2 to bind Gab2T, we performed kinetic displacement experiments in order to test the ability of Gab2T to displace Gab2N and Gab2C. […] These two values are in great agreement with what was previously calculated in binding experiments of the isolated domains.\nKinetic experiments of binding between the NSH2, CSH2 and NSH2-CSH2 tandem and the peptides mimicking different portions of Gab2 were measured by monitoring FRET between the tryptophan, acting as a donor, and a dansyl group covalently attached to the N-terminus of the peptides, acting as acceptor. […] The excitation wavelength used was 280 nm while the fluorescence emission was collected using a 475 nm cutoff glass filter. […] The observed rate constants were calculated from the average of 3–6 single traces and by fitting the time-course for binding using a single exponential equation y=Aexp−kobs t+c where A is the amplitude of the kinetic trace, kobs the observed rate constant and c the final fluorescence value of the trace. […]"}, "NSH2 domain": {"biological_target": "T2, NSH2 domain (Homo sapiens, UniProt Q06124)", "T2 construct": "The constructs encoding the isolated NSH2 domain, the isolated CSH2 domain, and the NSH2-CSH2 tandem were subcloned in a pET28b+ plasmid vector; made in house; host or cells: Escherichia coli BL21 (DE3)", "T2 sequence (Q06124 6-102 limits assumed)": "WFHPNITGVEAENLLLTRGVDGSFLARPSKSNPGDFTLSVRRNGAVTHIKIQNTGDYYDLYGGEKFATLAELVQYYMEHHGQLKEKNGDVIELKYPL", "test": "Kinetic binding (stopped-flow, FRET Trp-dansyl) to the isolated NSH2 domain", "description": "as §1, with “peptides. […]” for “peptides.”\nKinetic experiments of binding between the NSH2, CSH2 and NSH2-CSH2 tandem and the peptides mimicking different portions of Gab2 were measured by monitoring FRET between the tryptophan, acting as a donor, and a dansyl group covalently attached to the N-terminus of the peptides, acting as acceptor. […] The excitation wavelength used was 280 nm while the fluorescence emission was collected using a 475 nm cutoff glass filter. […]"}, "NSH2-CSH2 tandem of SHP2 [2]": {"biological_target": "T1, NSH2-CSH2 tandem of SHP2", "test": "Kinetic binding (stopped-flow, FRET Trp-dansyl) to the NSH2-CSH2 tandem", "details": "for kon (microscopic association rate constant): Hepes 50 mM, NaCl 300 mM, 2 mM DTT", "description": "as §1\nFirst, to test whether the presence of the contiguous CSH2 affected the affinity of the NSH2 domain for Gab2, we mixed a constant concentration of dansylated Gab2N (1 µM) vs. increasing concentrations of NSH2-CSH2 (ranging from 2 µM to 9 µM). The obtained observed rate constant (kobs) as a function of the concentration of the NSH2-CSH2 tandem was fitted with a linear equation, the slope corresponding to the microscopic association rate constant (kon) and the intercept with the y-axis to the microscopic dissociation rate constant (koff). To directly measure the koff, we performed displacement experiments by rapidly mixing a preincubated complex of NSH2-CSH2 with dansylated Gab2N (both at a constant concentration of 2 µM) versus a high excess of non-dansylated Gab2N (50 µM).\nWe also resorted to monitoring the binding reaction between the NSH2-CSH2 tandem with the Gab2T peptide. […] To obtain information about the ability of the NSH2-CSH2 to bind Gab2T, we performed kinetic displacement experiments in order to test the ability of Gab2T to displace Gab2N and Gab2C. Thus, in two separate experiments, we rapidly mixed a preincubated complex of NSH2-CSH2 with Gab2N (both at a constant concentration of 2 µM) versus an excess of Gab2T (50 µM) and a preincubated complex of NSH2-CSH2 with Gab2C (both at constant concentrations of 2 µM and 10 µM, respectively) versus an excess of Gab2T (50 µM) (Figure 5C). Importantly, in the two experiments, we could calculate two different rate constants, respectively, of 1.2 ± 0.3 s^−1 in the case of Gab2N, and 82 ± 1 s^−1 in the case of Gab2C. These two values are in great agreement with what was previously calculated in binding experiments of the isolated domains.\nKinetic experiments of binding between the NSH2, CSH2 and NSH2-CSH2 tandem and the peptides mimicking different portions of Gab2 were measured by monitoring FRET between the tryptophan, acting as a donor, and a dansyl group covalently attached to the N-terminus of the peptides, acting as acceptor. The experiments were performed on a single-mixing SX-18 stopped-flow instrument (Applied Photophysics, Leatherhead, UK) recording the change of dansyl emission. The excitation wavelength used was 280 nm while the fluorescence emission was collected using a 475 nm cutoff glass filter. The binding experiments were carried out at 25 °C mixing a constant concentration of dansylated peptide (1 μM) versus increasing concentrations of NSH2, CSH2 and NSH2-CSH2 (ranging from 2 to 10 μM). The buffer used was Hepes 50 mM, NaCl 300 mM, pH 7.2. The observed rate constants were calculated from the average of 3–6 single traces and by fitting the time-course for binding using a single exponential equation y=Aexp−kobs t+c where A is the amplitude of the kinetic trace, kobs the observed rate constant and c the final fluorescence value of the trace. The dependences of kobs as a function of ligand concentrations were fitted with a linear equation kobs=kon ligand+koff where kon is the microscopic association rate constant, and koff the microscopic dissociation rate constant."}},
  "data": [
    {"substance": "Gab2C: peptide mimicking Gab2_637–649 (binding the CSH2 domain)", "values": [
      {"measurement": "rate constant in displacement by Gab2T", "setting": "NSH2-CSH2 tandem of SHP2 [1]; preincubated NSH2-CSH2 (2 µM) with Gab2C (10 µM) vs excess Gab2T (50 µM)", "result": "82 ± 1", "unit": "s⁻¹"},
      {"measurement": "binding to isolated NSH2 domain, kinetic traces", "setting": "NSH2 domain; NSH2 domain mixed with different concentrations of Gab2C peptide", "result": "no kinetic traces could be recorded"}
    ]},
    {"substance": "Gab2N: peptide mimicking Gab2_608–620 (binding the NSH2 domain); used dansylated at the N-terminus and non-dansylated", "values": [
      {"measurement": "rate constant in displacement by Gab2T", "setting": "NSH2-CSH2 tandem of SHP2 [1]; preincubated NSH2-CSH2 with Gab2N (both 2 µM) vs excess Gab2T (50 µM)", "result": "1.2 ± 0.3", "unit": "s⁻¹"},
      {"measurement": "kon (microscopic association rate constant)", "setting": "NSH2-CSH2 tandem of SHP2 [2]; dansylated Gab2N 1 µM vs NSH2-CSH2 2 to 9 µM, no Gab2C, pH 7.2, 10 °C, excitation 280 nm, average of 3–6 traces", "result": "3.73e+07 ± 800000", "unit": "M⁻¹ s⁻¹"},
      {"measurement": "kon (microscopic association rate constant)", "setting": "NSH2-CSH2 tandem of SHP2 [2]; dansylated Gab2N vs NSH2-CSH2, in the presence of 10 µM Gab2C, pH 7.2, 10 °C", "result": "1.64e+07 ± 200000", "unit": "M⁻¹ s⁻¹"},
      {"measurement": "kon (microscopic association rate constant)", "setting": "NSH2-CSH2 tandem of SHP2 [2]; dansylated Gab2N vs NSH2-CSH2, in the presence of 20 µM Gab2C, pH 7.2, 10 °C", "result": "1.44e+07 ± 200000", "unit": "M⁻¹ s⁻¹"},
      {"measurement": "koff (microscopic dissociation rate constant)", "setting": "NSH2-CSH2 tandem of SHP2 [2]; displacement of preincubated NSH2-CSH2/dansylated Gab2N (both 2 µM) by excess non-dansylated Gab2N (50 µM), pH 7.2, 10 °C", "result": "1.8 ± 0.1", "unit": "s⁻¹"},
      {"measurement": "KD, calculated as koff/kon, tandem compared to isolated NSH2 domain", "setting": "NSH2-CSH2 tandem of SHP2 [2]; no Gab2C, pH 7.2", "result": "lower KD"},
      {"measurement": "koff (microscopic dissociation rate constant)", "setting": "NSH2 domain; isolated NSH2 domain, pH 7.2", "result": "1.8 ± 0.1", "unit": "s⁻¹"}
    ]},
    {"substance": "Gab2T: peptide mimicking the entire segment of Gab2 binding both SH2 domains, corresponding to Gab2_608–649 (STGSVDYLALDFQPSSPSPHRKPSTSSVTSDEKVDYVQVDKE; UniProt Q9UQC2 608-649, looked up, fragment)", "values": [
      {"measurement": "displacement of Gab2N and Gab2C from NSH2-CSH2", "setting": "NSH2-CSH2 tandem of SHP2 [1]; Gab2T 50 µM, pH 7.2", "result": "able to displace both peptides"},
      {"measurement": "kinetic binding to NSH2-CSH2, fluorescence change", "setting": "NSH2-CSH2 tandem of SHP2 [2]; Gab2T not available in dansylated form", "result": "did not return any change in fluorescence"}
    ]}
  ]
}
